Test system: T1, LPG10159 (Contaminated/multiple)
T1 sequence: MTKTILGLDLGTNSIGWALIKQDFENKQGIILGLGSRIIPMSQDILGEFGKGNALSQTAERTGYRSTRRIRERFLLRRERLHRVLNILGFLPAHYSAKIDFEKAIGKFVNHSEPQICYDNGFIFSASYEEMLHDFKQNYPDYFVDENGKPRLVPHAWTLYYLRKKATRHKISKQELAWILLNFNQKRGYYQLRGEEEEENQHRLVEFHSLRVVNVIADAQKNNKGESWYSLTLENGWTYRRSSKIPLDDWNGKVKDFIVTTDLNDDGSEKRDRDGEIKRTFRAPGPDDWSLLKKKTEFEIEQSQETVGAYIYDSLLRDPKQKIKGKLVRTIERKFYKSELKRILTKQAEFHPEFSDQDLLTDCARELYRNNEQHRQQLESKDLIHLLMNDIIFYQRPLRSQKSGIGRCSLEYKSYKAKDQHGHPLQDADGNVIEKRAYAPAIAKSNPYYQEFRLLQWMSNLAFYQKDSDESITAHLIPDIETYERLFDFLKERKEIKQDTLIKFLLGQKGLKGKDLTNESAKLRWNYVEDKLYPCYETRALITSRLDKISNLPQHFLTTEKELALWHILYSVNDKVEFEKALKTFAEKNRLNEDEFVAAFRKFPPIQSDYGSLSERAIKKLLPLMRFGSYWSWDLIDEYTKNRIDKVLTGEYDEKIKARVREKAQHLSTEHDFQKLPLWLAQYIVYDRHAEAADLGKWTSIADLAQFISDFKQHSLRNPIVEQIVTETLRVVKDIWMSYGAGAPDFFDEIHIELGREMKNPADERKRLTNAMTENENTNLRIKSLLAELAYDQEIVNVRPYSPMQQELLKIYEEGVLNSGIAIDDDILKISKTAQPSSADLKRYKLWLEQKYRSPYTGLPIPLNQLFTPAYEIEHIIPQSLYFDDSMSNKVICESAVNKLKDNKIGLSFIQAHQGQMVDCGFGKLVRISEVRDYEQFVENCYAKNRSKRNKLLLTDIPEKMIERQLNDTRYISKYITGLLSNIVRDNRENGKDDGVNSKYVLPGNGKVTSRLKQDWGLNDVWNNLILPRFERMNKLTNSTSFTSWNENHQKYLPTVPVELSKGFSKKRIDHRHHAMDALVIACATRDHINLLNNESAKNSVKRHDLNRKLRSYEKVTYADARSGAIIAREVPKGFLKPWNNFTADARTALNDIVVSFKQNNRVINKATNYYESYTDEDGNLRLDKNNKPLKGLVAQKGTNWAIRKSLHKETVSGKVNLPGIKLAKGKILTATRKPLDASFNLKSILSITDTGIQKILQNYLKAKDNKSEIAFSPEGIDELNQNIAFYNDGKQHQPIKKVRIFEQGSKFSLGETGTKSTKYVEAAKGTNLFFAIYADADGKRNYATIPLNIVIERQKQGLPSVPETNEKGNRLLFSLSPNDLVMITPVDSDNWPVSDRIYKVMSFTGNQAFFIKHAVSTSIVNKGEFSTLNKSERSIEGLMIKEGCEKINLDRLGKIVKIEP
Assay: cleavage_in_vitro
Settings: PAM SEQ ID 83

In the case of “GUUGUGAAUUGCUUUAAAGAAAGCAAUUCACAAUAAGGAUUAUUCCGUUGUGAAAACAUCUAGCGCCUCGUCUAUCUACGGGGCAUUUU / GATATAGACGTTGTGGCTGTTGTAGTAGAAATTC / GAATTTCTACTACAACAGCCACAACGTCTATATC [LPG10159 sgRNA L2 ; Library 2 target AGAAATTC]”, the activity (% target strand cleaved) was 2.5.
